These results are taken from US20210315969A1, “GLYCOPROTEINS HAVING LIPID MOBILIZING PROPERTIES AND THERAPEUTIC USES THEREOF” (Aston University, priority 2008, published 2021).

Test [1] can be described thus: Glucose and triolein oxidation, tissue glucose utilization and BAT oxygen uptake in mice treated with ZAG. The test is classed as in vivo. The source says:
FIG. 12E is a graphical diagraph showing tissue Rg in ob/ob mice administered ZAG, c, p<0.001 from PBS.
FIG. 24 is a graphical diagram showing the oxidation of D-[U-^14C glucose] to ^14CO2 in ob/ob mice.
FIG. 25 is a graphical diagram showing production of ^14CO^2 from [^14C carboxy] triolein in ob/ob mice.

The test system of a further test is adipocytes. The test is described as follows: Lipolytic responsiveness of adipocytes from ZAG treated ob/ob mice to isoprenaline or BRL37344. The test is classed as in vivo. The source says: FIG. 5K is a graphical diagram showing the response of adipocytes from epididymal (ep), subcutaneous (sc) and visceral (vis) deposits from ob/ob mice treated with either PBS or ZAG for 5 days to the lipolytic effect of BRI,37344, Differences from PBS controls are indicated as *** p<0.01, while differences in the presence of PD98059 is shown as # p<0.001.
FIG. 9 is a graphical diagram showing glycerol release stimulated by isoprenaline (iso) isolated adipocytes which have been in culture up to 5 days from ob mice treated with and without ZAG.
Lipolytic Assay—Samples to be assayed were incubated with 10^5 to 2×10^5 adipocytes for 2 h in 1 ml Krebs-Ringer bicarbonate buffer, pH 7.2. The concentration of glycerol released was determined enzymatically by the method of Wieland (Wieland, O. Glycerol UV method. In Methods of Enzymatic Analysis (ed. Bergmeyer, H. U.) (Academic Press, London, UK, pp 1404-1409, 1974)). Control samples containing adipocytes alone were analysed to determine the spontaneous glycerol release. Activity was expressed as nmol glycerol released/10^5 adipocytes/2 h.
Adipocytes were removed from mice after 5 days of ZAG and their responsiveness to isoprenaline (iso) was measured after culture in the absence of ZAG (FIG. 9), The responsiveness to iso is higher in ZAG treated mice and this continues for a further 4 days (Which was when expression of ZAG and HSL were increased) and then falls on day 5 (when expression was not increased) down to values of PBS control.
The data shown in Attachment 1 is from a 5 day study where ZAG was administered at 35 μg per day i.v. on a daily basis for 5 days. At the end of the experiment tissues were removed and blotted, or functional assays were carried out with isolated adipocytes. […] When ep adipocytes were prepared and maintained in tissue culture (RPMI 1640 ±10% FCS) ZAG expression was maintained for a further 3 days, even though no ZAG was added to the culture medium (FIG. 6B). […] In fact, as discussed above, too much ZAG is more likely to lead to resistance rather than an increased response.

Test [2] is described as follows: ZAG i.v. administration to ob/ob mice, 5 day study (body weight, temperature, plasma metabolites). It counts as in vivo. The method, then:
Animals—Mice—Homozygous obese (ob/ob) mice from the colony maintained at Aston University were used in the present study. The origin and characteristics of Aston ob/ob mice have been previously described. Male mice (20-21 weeks old, weight 90-100 g) were grouped into three per cage in an air conditioned room at 22 ±2° C. with a 12 h-light:12 h-dark cycle and fed a rat and mouse breeding diet (Special Diet Services, Witham, UK) and tap water ad libitum. They were administered ZAG (35 μg) in PBS (100 μl) b.d. by i.v. administration and body weight and food and water intake were monitored daily. Control mice received PBS alone. Body temperature was measured daily by the use of a rectal thermometer (RS Components, Northants, UK). All animal experiments were carried out in accordance with the U.K. Animals (Scientific Procedures) Act 1986.
Serum Metabolite Determinations—Non-esterified fatty acids (NEFA) were determined using a Wako-ASC-ACOD kit (Wako Chemical GmbH, Neuss, Germany). Triglycerides were determined using a Triglyceride kit (Sigma Chemical Co., Poole, United Kingdom) and 3-hydroxybutyrate by a quantitative enzymatic determination kit (Sigma). Glucose was measured using a glucose analyser (Beckman, Irvine, Calif.) and glycerol was determined enzymatically using the method of Wieland as described in “Methods of Enzymatic Analysis” (Ed, Bergmeyer, H. U.) Vol. 3, pp1404-1409, published by Academic Press, London (1974).

The test system of test [3] is protein expression in adipocytes, BAT and gastrocnemius muscle. The test is described as follows: Western blot analysis of tissues of ob/ob mice treated with ZAG. The test is classed as in vivo. The method, then: Western Blot Analysis—Freshly excised gastrocnemius muscles were washed in PBS and lysed PHOSPHOSAFE™ Extraction Reagent for 5 min at room temperature followed by sonication at 4° C. The lysate was cleared by centrifugation at 18,000 g for 5 min at 4° C. and samples of cytosolic protein (5 μg) were resolved on 12% sodium dodecyl suflate-polyacrylamide gel electrophoresis at 180V for approximately 1 h. This was followed by transference to 0.45 μm nitrocellulose membranes, which were then blocked with 5% Marvel in Tris-buffered saline, pH 7.5, at 4° C. overnight. Both primary and secondary antibodies were used at a dilution of 1:1000 except anti-myosin (1:250). Incubation was for lh at room temperature, and development was by FCL. Blots were scanned by a densitometer to quantify differences.

A further test concerns murine myotubes. The test is described as follows: Protein degradation and synthesis in myotubes subjected to high glucose. The test is classed as cell-based. The protocol: FIGS. 18A and 18B is a graphical diagram showing phenylalanine release (FIG. 18A) and protein synthesis (FIG. 18B) in C2Cl2 myotubes treated with and without ZAG for 4 h in the presence of various concentrations of glucose. Statistically significant c, P<0.001 from control; f, P<0.001 from glucose alone.
Statistically significant b, P<0.01 and c, P<0.001 from control; e, P<0.05 and f, P<0.001 from glucose alone.
Statistically significant b, P<0.01 and c, P<0.001 from control; e, P<0.05 and f, P<:0.001 from glucose alone; I, P<0.001 from glucose+SR.
This utilizes murine myotubes subjected. to high concentrations of glucose (10 or 25 mM).

Test [4] in a line: Insulin tolerance test in ob/ob mice administered ZAG for 3 days. It counts as in vivo. The protocol: An insulin tolerance test was also carried out in ob/ob mice administered. ZAG for 3 days (FIG. 23). Animals were administered two doses of insulin (10 and 20 U/kg) by i.p. injection and blood glucose was measured over the next 60 min. […] The glucose disappearance curve for 20 U/kg +PBS was almost identical to 10 U/kg +ZAG, so at this dose level ZAG is reducing the requirement for insulin by 50%, but this can be overcome by giving more insulin.

[5] abbreviates: ob/ob mice treated for 120 h, wet weight.

B1: Zinc-α2-glycoprotein (protein, listed as Homo sapiens)
chain: QENQDGRYSLTYIYTGLSKHVEDVPAFQALGSLNDLQFFRYNSKDRKSQPMGLWRQVEGMEDWKEDSQLQKAREDMETLKDIVEYYNDSNGSHVLQGRFGCEIENNRSSGAFWKYYYDGKDYIEFNKEIPAWVPFDPAAQITKQKWEAEPVYVQRAKAYLEEECPATLRKYLKYSKNILDRQDPPSVVVTSHQAPGEKKKLKCLAYDFYPGKIDVHWTRAGQVQEPELRGDVLHNGNGTYQSWVVVAVPPQDTAPYSCHVQHSSLAQPLVVPWEAS
notes: recombinant human Zinc-α2-glycoprotein, lipid mobilizing factor, expressed in HEK293F cells
With B1, in test [1], the “glucose utilization/oxidation by brain, heart, BAT and gastrocnemius muscle” value is given as “increased glucose utilizationloxidation”; the “production of 14CO2 from D-[U-14C] glucose and [14C carboxy] triolein” value is recorded as “increased production”. For the same molecule, in the test with adipocytes (adipocytes from mice after 5 days ZAG, cultured in absence of ZAG), the “responsiveness of adipocytes to isoprenaline” value was “higher”. In addition, the “lipolytic response of epididymal adipocytes to the β3 agonist BRL37344” value in the test with adipocytes (adipocytes from mice treated 5 days) was “increased lipolytic response”. Further, the “time the increased response to isoprenaline was maintained in tissue culture” value in the test on adipocytes (isoprenaline 10 μM, absence of ZAG) turned out to be 4 days. For the same molecule, in test [2] (ob/ob mice treated for 120 h), the BAT was determined as 0.73 ± 0.12 p < 0.01 g, the “NEFA (plasma)” value is reported as 0.73 ± 0.05 p < 0.001 mEq/L and the “TG (plasma)” value is given as 0.9 ± 0.1 p < 0.05 mmol/L. In test [2] (setting [5]), the Gastrocncinius was determined as 1.12 ± 0.14 p < 0.01 g and the Soleus was determined as 0.80 ± 0.09 p < 0.01 g. The “rise of body temperature” value in test [2] (ob/ob mice, after 4 days of ZAG administration) was found to be 0.4 °C. Further, the “weight difference between the groups” value in test [2] (ob/ob mice, after 5 days, ZAG vs PBS) stood at 3.5 g. Also, in test [3] (5 days ZAG), the “expression of HSL in epididymal adipocytes” value was “increased expression of HSL”; the “expression of HSL in subcutaneous or visceral adipocytes” value was “no increase”; the “expression of UCP1 and UCP3 in BAT and UCP3 in skeletal muscle” value was “increased the expression”. Moreover, the “expression of pERK” value in test [3] (5 days ZAG, ep, sc, vis adipose tissue) is “increase in expression of pERK only in ep adipose tissue”. Further, the “phospholipase A2 (PLA2) and p38 mitogen activated protein kinase” value in test [3] (gastrocnemius muscle) was “attenuated”. Further, in test [3] (no ZAG added to culture medium), the “time ZAG expression was maintained in cultured ep adipocytes” value is 3 days. Further, the “expression of HSL and ATGL in epididymal adipose tissue” value in test [3] (ob/ob mice) is on record as “increases the expression”. The actin levels entry in test [3] (skeletal muscle) is “did not change”. In the test with murine myotubes (ZAG 2.5 μg/ml, glucose 10 or 25 mM), the “high glucose induced increase in protein degradation and depression of protein synthesis” value is “completely attenuated”. In addition, the “protein degradation induced by 10 and 25 mM glucose” value in the test with murine myotubes (myotubes) was “attenuated”. Also, the “insulin tolerance test, blood glucose response” value in test [4] (insulin 10 U/kg i.p., vs PBS) was “increased sensitivity to insulin”. Besides, in test [4] (insulin 20 U/kg i.p.), the “insulin tolerance test, difference ZAG versus PBS” value is reported as “difference disappeared”.
